This note sets out measurements from patent publication US20260317399 (published 2026).

B1: BP557 (antibody)
chain 1: QVQLQESGPGLVKPSETLSLTCAVSGHSISHDHAWSWVRQPPGEGLEWIGFISYSGITNYNPSLQGRVTISRDNSKNTLYLQMNSLRAEDTAVYYCARSLARTTAMDYWGEGTLVTVSSASTKGPSVFPLAPSSKSTSGGTAALGCLVKDYFPEPVTVSWNSGALTSGVHTFPAVLQSSGLYSLSSVVTVPSSSLGTQTYICNVNHKPSNTKVDKKVEPKSCDKTHTCPPCPAPELLGDDSVFLFPPKPKDTLMISRTPEVTCVVVDVGDEDGEVKFNWYVDGVEVHNAKTKPREEQDNSTYRVVSVLTVLHQDWLNGKEYKCKVSNKALPRPIEKTISKAKGQPREPQVYTLPPSRDELTKNQVSLTCLVKGFYPSDIAVEWESNGQPENNYKTTPPVLDSDGSFFLYSKLTVDKSRWQQGNVFSCSVMHEALHNHYTQESLSLSP
chain 2: not shown
B2: IL6R-AP029/IL6R-BP407/IL6R-L (antibody)
chain 1: B1 chain 1 with E235D, G269S, D270E, D358K, H437R, E441K
chain 2: B1 chain 1 with E235D, L237D, G269S, D270E
chain 3: not shown
B3: IL6R-BP404/IL6R-L (antibody)
chain 1: B1 chain 1 with E235D, L236Y, G269S, D270E
chain 2: not shown
B4: IL6R-BP408/IL6R-L (antibody)
chain 1: B1 chain 1 with E235D, L237Q, G269S, D270E
chain 2: not shown
B5: IL6R-AP029/IL6R-BP408/IL6R-L (antibody)
chain 1: B1 chain 1 with E235D, G269S, D270E, D358K, H437R, E441K
chain 2: B1 chain 1 with E235D, L237Q, G269S, D270E
chain 3: not shown
B6: IL6R-AP029/IL6R-BP409/IL6R-L (antibody)
chain 1: B1 chain 1 with E235D, G269S, D270E, D358K, H437R, E441K
chain 2: B1 chain 1 with E235D, L237E, G269S, D270E
chain 3: not shown
B7: IL6R-BP419/IL6R-L (antibody)
chain 1: B1 chain 1 with E235D, L237F, G269S, D270E
chain 2: not shown
B8: IL6R-AP029/IL6R-BP410/IL6R-L (antibody)
chain 1: B1 chain 1 with E235D, G269S, D270E, D358K, H437R, E441K
chain 2: B1 chain 1 with E235D, L237T, G269S, D270E
chain 3: not shown
B9: IL6R-AP002/IL6R-BP257/IL6R-L (antibody)
chain 1: B1 chain 1 with E235D, G269S, D298Y, D358K, H437R, E441K
chain 2: B1 chain 1 with S126E, E235D, G269S, D298Y
chain 3: not shown
B10: IL6R-BP259/IL6R-L (antibody)
chain 1: B1 chain 1 with S126D, E235D, G269S
chain 2: not shown
B11: IL6R-BP256/IL6R-L (antibody)
chain 1: B1 chain 1 with S126D, E235D, G269S, D298Y
chain 2: not shown
B12: IL6R-AP009/IL6R-BP260/IL6R-L (antibody)
chain 1: B1 chain 1 with E235D, G269S, D358K, H437R, E441K
chain 2: B1 chain 1 with S126E, E235D, G269S
chain 3: not shown
B13: IL6R-AP002/IL6R-BP256/IL6R-L (antibody)
chain 1: B1 chain 1 with E235D, G269S, D298Y, D358K, H437R, E441K
chain 2: B1 chain 1 with S126D, E235D, G269S, D298Y
chain 3: not shown
B14: IL6R-BP257/IL6R-L (antibody)
chain 1: B1 chain 1 with S126E, E235D, G269S, D298Y
chain 2: not shown
B15: IL6R-AP009/IL6R-BP259/IL6R-L (antibody)
chain 1: B1 chain 1 with E235D, G269S, D358K, H437R, E441K
chain 2: B1 chain 1 with S126D, E235D, G269S
chain 3: not shown
B16: IL6R-BP260/IL6R-L (antibody)
chain 1: B1 chain 1 with S126E, E235D, G269S
chain 2: not shown

Changes are numbered by the printed parent chain.

T3 sequence (P08637 17-208 F176V): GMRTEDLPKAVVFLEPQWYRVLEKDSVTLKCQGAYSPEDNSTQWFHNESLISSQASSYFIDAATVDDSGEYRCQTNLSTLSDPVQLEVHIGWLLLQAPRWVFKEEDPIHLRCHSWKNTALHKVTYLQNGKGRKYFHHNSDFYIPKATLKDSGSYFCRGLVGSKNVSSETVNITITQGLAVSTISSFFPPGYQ

One experiment has as its target T1, FcgRIa (human, UniProt P12314).
T1 chain: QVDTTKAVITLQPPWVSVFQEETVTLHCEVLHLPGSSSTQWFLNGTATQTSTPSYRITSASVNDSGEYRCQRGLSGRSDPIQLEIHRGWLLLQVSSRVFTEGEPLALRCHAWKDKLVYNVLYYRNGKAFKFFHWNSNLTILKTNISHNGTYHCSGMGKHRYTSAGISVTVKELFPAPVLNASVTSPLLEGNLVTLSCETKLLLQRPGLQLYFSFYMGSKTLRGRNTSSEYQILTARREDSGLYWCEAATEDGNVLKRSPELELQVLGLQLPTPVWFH
Nature of the experiment: SPR. Background: In SPR one partner is held on a chip, and binding of the other changes the refractive index at the surface.
For orientation: Kd means the equilibrium constant for the complex coming apart. Low readings indicate tighter binding, high ones weaker binding. In the case of B1, binding was characterised by a dissociation constant (Kd) of 0.013 µM.

The target of the next experiment is T2, FcgRIIaH (human, UniProt P12318).
T2 chain: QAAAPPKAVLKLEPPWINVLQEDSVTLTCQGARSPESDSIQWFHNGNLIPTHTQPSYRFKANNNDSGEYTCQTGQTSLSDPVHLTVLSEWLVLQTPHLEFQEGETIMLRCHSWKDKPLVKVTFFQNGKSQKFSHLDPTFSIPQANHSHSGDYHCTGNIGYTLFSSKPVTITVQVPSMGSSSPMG
The experiment can be described thus: SPR.
For B2, the affinity, expressed as Kd, was 8.9 µM.

For the molecule B3, the Kd was found to be 3.4 µM.

Molecule B4 had a Kd of 77 µM. Same read-out and setting: under B5 stands 8.2 µM; under B6, 9.4 µM. The same measure, in the same setting: then B7, with 38 µM. The same measure, in the same setting: then B8, with 5.1 µM.

A further experiment has as its target T3, FcgRIIIaV (human, UniProt P08637). The experiment can be described thus: SPR.
As to B9, the affinity, expressed as Kd, was 14 µM. In other words, the double-digit micromolar range.

As for B10, binding was characterised by a dissociation constant (Kd) of 11 µM. The Kd values of the last two molecules are within 1.5-fold of each other.

On to B11, for which binding was characterised by a dissociation constant (Kd) of 11 µM.

Molecule B12 showed a Kd of 16 µM.

For B13, the affinity, expressed as Kd, was 17 µM. This Kd and that of the molecule before are within 1.5-fold of each other. B14 gave a dissociation constant Kd of 19 µM. Still for that read-out and setting: under B15 stands 22 µM.

Consider B16, for which the affinity, expressed as Kd, was 21 µM.

The target in a further experiment is T3, FcgRIIIaV. Nature of the experiment: SPR. The source holds these as a separate data set.
B2 displayed a Kd of 23 µM. This counts as double-digit micromolar. Still for that read-out and setting: then B3, with 33 µM; and B4, with 50 µM. For the molecule B5, binding was characterised by a dissociation constant (Kd) of 31 µM. Same read-out and setting: then B6, with 28 µM; and B7, with 38 µM. The same measure, in the same setting: then B8, with 21 µM.

The next experiment addresses T2, FcgRIIaH. Nature of the experiment: SPR. The source holds these as a separate data set.
Take B10: the affinity, expressed as Kd, was 18 µM. On the same count and under the same terms, then B11, with 21 µM; and B14, with 39 µM; and B16, with 3.9 µM.
